Where a chain is given by its changes, count along the chain named.
T1: Biotin sY46 PSGL-1(42-62) peptide (human, sulfotyrosine at Y46; C-terminal Lys-biotin)
T1 peptide: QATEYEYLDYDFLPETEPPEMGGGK

T2: Biotin sY48 PSGL-1(42-62) peptide (human, sulfotyrosine at Y48; C-terminal Lys-biotin)
T2 construct: also called sY48S
T2 peptide: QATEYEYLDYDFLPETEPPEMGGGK

T3: Biotin Y46,48,51(SO3) PSGL-1(42-62) peptide (human, sulfotyrosine at Y46, Y48 and Y51; C-terminal Lys-biotin)
T3 construct: also called fully sulfated N-terminal PSGL-1 peptide
T3 peptide: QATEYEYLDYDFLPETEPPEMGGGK

T4: Biotin sY51 PSGL-1(42-62) peptide (human, sulfotyrosine at Y51; C-terminal Lys-biotin)
T4 construct: also called Y51(SO3) PSGL-1(42-62)
T4 peptide: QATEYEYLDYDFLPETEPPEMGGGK

T5: PSGL-1(42-62) N-terminal peptide, sulfation state not told at the place (human, not fully specified; sulfation of Y46, Y48, Y51 not stated for these table columns)
T5 peptide: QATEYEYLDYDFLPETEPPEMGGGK

T6: Recombinant human PSGL-1(ECD)-hFc1 (R&D Systems, Cat. 3345-PS) (human, UniProt Q14242 42-305)
T6 construct: Bought; Gln42-Val295 counted on AAC50061; also called PSGL-1-Fc; PSGL-1-hFc1 chimera; not shown: human IgG1 Fc, Pro100-Lys330
T6 sequence: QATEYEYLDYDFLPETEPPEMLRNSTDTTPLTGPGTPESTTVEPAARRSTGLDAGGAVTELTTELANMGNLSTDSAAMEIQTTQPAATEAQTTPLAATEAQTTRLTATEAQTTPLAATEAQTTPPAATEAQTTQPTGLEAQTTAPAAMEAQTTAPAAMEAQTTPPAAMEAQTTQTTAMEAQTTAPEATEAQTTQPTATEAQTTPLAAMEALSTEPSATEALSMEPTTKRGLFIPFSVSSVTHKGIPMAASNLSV

T7: Biotin PSGL-1(42-62) D52A peptide (C-terminal Lys-biotin)
T7 peptide: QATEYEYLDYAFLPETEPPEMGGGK

B1: 03D07 (antibody, IgG4, V domains shown)
VH: EVKLLESGGGLVQPGGSLRLSCAASGFTFSSYALSWVRQAPGKGLEWVSAISGSGGNTYYADSVKGRFTISRDNSKNTLYLQMNSLRAEDTAVYYCAKVVGATNYWGQGTLVTVSS
VL: DIVMTQTPLSLPVTLGQPASISCRSSQSLVYSDGHTYLSWFHQRPGQSPRRLIYKVSIRDSGVPDRFSGSGSGTDFTLKISRVEAEDVGVYYCMQRLQIPLTFGGGTKVEIK
B2: 18K07 (antibody, V domains shown)
VH: QIQLVQSGPELKKPGETVKISCEASGYTFTTYGMNWVKQAPGKGLKWMGWINTYSGVPTYADDFQGRFAFSVETSATTAYLQINNLKNEDAATYFCARSDDTYYGFAYWGQGTLVTVSA
VL: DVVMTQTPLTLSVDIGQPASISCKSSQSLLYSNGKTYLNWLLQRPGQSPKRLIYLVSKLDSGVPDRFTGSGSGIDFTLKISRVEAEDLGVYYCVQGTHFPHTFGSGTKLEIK
notes: From mouse immunisation; only variable domains given
B3: 5E12 (antibody, V domains shown)
VH: EIQLQQSGAELVRPGASVKLSCTASGFNIKDDYIHWVKQRPEQGLEWIGRIDPANGNTKSAPKFQDKATITADTSSNTAYLHLSSLTSEDTAVYYCSIRFAYWGQGTLVTVSA
VL: DVVMTQTPLSLSVSLGDQASISCRSSQSLVYRNGDTYLHWFLQKPGQSPKLLIYKVSNRFSGVPDRFSGSGSGTDFTLKISRVEAEDLGIYFCSQNTHVPYTFGGGTKLEIK
notes: Mouse hybridoma mAb; only variable domains given
B4: 2E12 (antibody, V domains shown)
VH: QVQLQQSGAELARPGASVKLSCKASGYTFTNYGLNWVKQRTGQGLEWIGEIYPRSGNTYYNEKFKGKATLTADKSSSTAYMQLSSLTSEDSAVYFCATEGAYWGQGTLVTVSA
VL: DIVMTQTPLTLSVTIGQPASISCKSSQSLLHGNGKTYLNWLLQRPGQSPKLLIYLVSKLESGIPDRFSGSGSGTDFTLEISRVEAEDLGIYYCLQSTHFPRTFGGGTKLEIK
notes: as for B3
B5: 20I15 (antibody, V domains shown)
VH: EVKLVESGGGLVQPGGSLSLSCAASGFTFTDYYMSWVRQPPGKALEWLGFIRNKANGYTTEYSASVKGRFTISRDNSQSILYLQMNALRAEDSATYYCARTYLRRGYFDVWGTGTTVTVSS
VL: DIVLTQSPASLAVSLGQRATISCRASKSVSTSGYSYMHWFQQKPGQPPKLLIYLASNLESGVPARFSGSGSGTDFTLNIHPVEEEDAATYYCQHSRELPLTFGAGTKLELK
notes: From mouse immunisation; only variable domains given; also called 20115
B6: 18F02 (antibody, V domains shown)
VH: QVQLQQPGAELVKPGASVKLSCKASGYTFTSYWMHWVKQRPGQGLEWIGMIHPNSGRTNYNEKFKSKATLTVDKSSSTAYMQLSSLTSEDSAVYYCARSDYWGQGTTLTVSS
VL: DIVMTQAAFSNPVTLGTSASISCRSSKSLLHSDGITYLYWFLQRPGQSPQLLIYRMSNLASGVPDRFSGSGSGTDFTLRISRVEAEDVGVYYCAQMLEFPRTFGGGTKLEIK
notes: as for B2
B7: 10F01 (antibody, IgG4, V domains shown)
VH: EVQLVQSGGGLVQPGGSLRLSCAASGFTFSSYAMSWVRQAPGKGLEWVSALRGGDGGTYHADSVKGRFTISGDSSKNTLYLQMNSLRAEDTAVYYCARRMVGAAYAFDIWGQGTMVTVSS
VL: LPVLTQPHSVSESPGKTVTISCTRSSGSIADNFVQWYRQRPGSAPTTVIYEGDQRPSGVPGRFSGSIDSSSNSASLTISGLQTDDEADYYCQSFDSYNRRTHVVFGGGTKLTVL
B8: 16E17 (antibody, V domains shown)
VH: QIQLVQSGPELKKPGETVKISCKASGYAFTTYGMSWVKQAPGKGLKWMGWINTYSGVPKYADDFKGRFAFSLETSASTAYLHINNLKNEDTATYFCGRHYYGSSYFDYWGQGTTLTVSS
VL: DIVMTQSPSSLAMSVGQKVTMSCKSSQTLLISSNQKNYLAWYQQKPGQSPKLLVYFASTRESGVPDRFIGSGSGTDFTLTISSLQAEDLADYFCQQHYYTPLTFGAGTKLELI
notes: as for B2
B9: 19L04 (antibody, IgG4, V domains shown)
VH: B8 VH with A28T, K59T, H82Q, N88I, G97A, S104H
VL: DIMMTQSPSSLAMSVGQKVTLRCKSSQSLLNSSNQKNYLAWYQQKPGQSPKLLVYFASTRESGVPVRFIGSGSGTDFTLTISSMQAEDLADYFCQQHYFSPLTFGAGTKLELK
notes: as for B2
B10: 19N05 (antibody, V domains shown)
VH: B8 VH with A28T, K59T, Y60F, H82Q, Y94F, G97A, H99N, S103N, S104H
VL: DVQITQSPSYLAASPGETISINCRASNNINKYLAWYQEKPGKTNKLLIYSGSTLQSGIPSRFSGSGSGTDFTLTISSLEPEDFAMYHCQQHNYYPLTFGAGTKLELK
notes: as for B2
B11: 16L15 (antibody, V domains shown)
VH: DVKLVESGGGLVKLGGSLKLSCAASGFTFSSYYMSWVRQTPEKRLEWVATISNGGGSTYYPDSVKDRFTISRDNAKNTLYLQMSSLNSEDTAVYYCAKPLYYSNPWFAYWGQGTLVTVSA
VL: DVLLTQTPLSLPVSLGDQASISCRSSQSIVHSNGNTYLEWYLQKPGQSPKLLIYKVSNRFSGVPDRFSGSGSGTDFTLKISRVEAEDLGVYYCFQGSHVPRTFGGGTKLEIK
notes: as for B2

Assays:
[1] = biological target: T1, Biotin sY46 PSGL-1(42-62) peptide; assay: ELISA, plate-bound mAb captures biotin peptide
Description: (§1) Two ELISA methods were performed. One procedure detected mAb binding to its plate-immobilized target and the other measured the immobilized antibody's ability to capture biotinylated PSGL-1₄₂₋₆₂. […] The plate was incubated for 45 min at 37° C. Plates were washed 3 times with wash buffer (PBS containing 0.05% tween 20, pH 7.4) and a single concentration (2 to 500 nM) or serially diluted (0.002-100 nM) anti-PSGL-1 mAb was added (25 ul/well) in assay buffer into appropriate wells. The plate was incubated for 45 min at 37° C., washed 3 times, and an appropriate HRP-conjugated secondary antibody added (25 ul/well) (HRP goat anti-mouse or anti-human IgG). After 45 min incubation at 37° C., the plate was washed, and antibody bound to plate-immobilized target was determined at A450 nm using HRP substrate (3,3′,5,5′-etramethylbenzidine (TMB)). For each antibody, duplicate values were averaged and assay background was subtracted. Except for the following, ELISAs involving plate-immobilized mAb capturing of biotinylated PSGL-1₄₂₋₆₂ peptides was performed in the same manner as described above: 3 ug/mL/25 ul per well of mAb was coated directly onto microtiter plate wells; biotinylated unmodified or sulfotyrosine PSGL-1₄₂₋₆₂ was serially diluted (3 nM-3 uM) into appropriate wells, and antibody-bound peptide was detected using HRP-streptavidin (Jackson Immunoresearch, Cat. #016-030-084).

[2] = biological target: T2, Biotin sY48 PSGL-1(42-62) peptide; assay: ELISA, plate-bound mAb captures biotin peptide
Description: as §1

[3] = biological target: T3, Biotin Y46,48,51(SO3) PSGL-1(42-62) …; assay: ELISA, plate-bound mAb captures biotin peptide
Description: as §1

[4] = biological target: T4, Biotin sY51 PSGL-1(42-62) peptide; assay: ELISA, plate-bound mAb captures biotin peptide
Description: as §1

[5] = biological target: T5, PSGL-1(42-62) N-terminal peptide, …; assay: binding to PSGL-1 42-62
[6] = biological target: PSGL-1(ECD)-hFc1 S116A protein (Sino Biological) (human); assay: ELISA; against WT PSGL-1(ECD)-hFc1
Description: (§2) A typical ELISA experiment involved binding of a single concentration or serially diluted mAb in assay buffer (3% BSA in PBS containing 0.05% Tween®20, pH 7.4) onto BSA blocked high binding microtiter plate half-wells (Corning Cat. #3690), which contained PSGL-1 protein or streptavidin-immobilized biotin peptide. After incubation for 45 min. at 37° C., the plate was washed 3 times with wash buffer (PBS containing 0.05% Tween®20, pH 7.4), and an appropriate HRP-conjugated secondary antibody added (25 ul/well) (HRP goat anti-mouse or anti-human IgG). After 45 min. incubation at 37° C., the plate was washed and antibody bound to plate-immobilized target was determined at A450 nm using HRP substrate (3,3′5,5′-tetramethylbenzidine (TMB)). For each antibody, duplicate values were averaged and assay background subtracted.

[7] = biological target: PSGL-1(ECD)-hFc1 I121A protein (Sino Biological) (human); assay: ELISA; against WT PSGL-1(ECD)-hFc1
Description: as §2

[8] = biological target: PSGL-1(ECD)-hFc1 M119A protein (Sino Biological) (human); assay: ELISA; against WT PSGL-1(ECD)-hFc1
Description: as §2

[9] = biological target: T6, Recombinant human PSGL-1(ECD)-hFc1 (R&D …); assay: Octet tandem; competitor 19L04
Description: Antibody binning was performed by ForteBio Octet® using a tandem assay format, with anti-human IgG biosensor-immobilized PSGL-1(ECD)-hFc1 protein, binding of competitor mAb followed by analyte antibody. As competition controls, the same antibody was competed against itself, and mAb competition was performed bidirectionally.
Antibody binning by tandem octet was performed by immobilizing 10 ug/mL PSGL-1(ECD)-hFc1 (R&D Systems, Cat. #3345-PS) in PBS, pH 7.4, onto anti-human IgG capture biosensors (ForteBio, Cat. #18-5060), binding of 100 nM competitor antibody for 300 sec., followed by binding of 100 nM of analyte mAb for 300 s in kinetic buffer (0.1% BSA in PBS containing 0.02% tween 20 and 0.05% sodium azide, pH 7.4). Synagis (Johnson et al. (1997) J. Infect. Dis. 176:1215-1224) served as a negative control mAb for competition. An Fc quench step (0.25 mg/mL human IgG Fcl; BioXcell, Cat. #BE0096, in kinetic buffer) was included when human mAbs were tested to prevent high background from the antibodies binding to the anti-human IgG biosensor. Biosensor regeneration buffer consisted of 10 mM glycine, pH 2.0.

[10] = biological target: T6, Recombinant human PSGL-1(ECD)-hFc1 (R&D …); assay: ELISA, plate-bound target
[11] = biological target: T7, Biotin PSGL-1(42-62) D52A peptide; assay: ELISA, streptavidin-bound Ala peptide

| Binder | binding result [5] | EC50/EC50WTprot [6] | EC50/EC50WTprot [7] | EC50/EC50WTprot [8] | % binding of analyte mAb [9] | EC50 [10] | further results |
| --- | --- | --- | --- | --- | --- | --- | --- |
| B1 |  |  |  |  |  |  | EC50 [1]: 971 nM; fold stronger binding than to the unmodified peptide [1]: ~10 fold; EC50 [2]: > 3000 nM; EC50 [3]: 39.4 nM; EC50 [4]: ~2000 nM; fold stronger binding than to the unmodified peptide [4]: ~10 fold |
| B2 | no binding | 1.02 fold | 0.89 fold | 0.81 fold | 0% |  |  |
| B3 |  |  |  |  |  | 0.51 nM |  |
| B4 |  |  |  |  |  | 0.6 nM |  |
| B5 |  |  |  |  |  |  | EC50 [1]: ~3000 nM; EC50 [2]: ~3000 nM; EC50 [3]: 292 nM; EC50 [4]: ~3000 nM |
| B6 |  |  |  |  |  | 0.57 nM | EC50 [11]: > 10 nM |
| B7 |  |  |  |  |  |  | EC50 [1]: ~2000 nM; EC50 [2]: ~3000 nM; EC50 [3]: ~1 nM; EC50 [4]: 36.2 nM |
| B8 | no binding | 1.45 fold | 2.8 fold | 1.58 fold | 0% |  |  |
| B9 | no binding | 1.44 fold | 1.42 fold | 1.26 fold | 35.9% |  |  |
| B10 | no binding | 1.43 fold | 1.39 fold | 1.34 fold | 39.4% |  |  |
| B11 |  |  |  |  |  | 0.96 nM | EC50 [11]: 19.9 nM |

— patent publication US20220396632A1 (VERSEAU THERAPEUTICS, published 2022)
